Measurements from US11402384B2 (Duke University, priority 2015, dated 2022).
Where a chain is given by its changes, count along the chain named. In names and notes the source's numbering stands.

B1: W244F A: tsGBP2.13C.W244F (SEQ ID NO: 48) Acrylodan conjugate (conjugate)
chain: MKLEIFSWWAGDCGPALEALIRLYKQKYPGVEVINATVTGGAGVNAKAVLKTRMLGGDPPDTFQVHAGQELIGTWVVADRMEDLTSLFRQEGWLQAFPKGLIDLLSYKGGIWSVPVNIHRSNVMWYIPAKLKEWGVTPPKTWAEFLATAQTLKRKGLEAPLALGENWTQQHLWESVALATLGADGWNNLWSGKLKFTDPKAVAVWETFGKVLDAANKDAAGLSWQQAVDRVVQGKAAFNIMGDFAAGYMSTTLKLKPGTDFAWTPSPGTSGIFMMLSDSFGLPKGAKNRQNAINWLKLVGSKEGQDTFNPLKGSIAARLDSDPAKYNAYGQSAMKDWKSNRIVGSLVHGAVAPESFMSQFGTVMEIFLQSRNPQAAANAAQAIANQVGLGRGGSHHHHHH
modifications: Acrylodan conjugate; tsGBP2.13C.W244F (13C, 244F double substitution mutant with signal peptide replaced with M and a GGSHHHHHH at C-terminus)
B2: tsGBP2: glucose-binding protein from Thermus scotoductus, SEQ ID NO: 10 (protein)
chain: B1 chain with C13E, F244W
modifications: tsGBP2 (with signal peptide replaced with M and a GGSHHHHHH at C-terminus)
B3: dmGBP3: glucose-binding protein from Deinococcus maricopensis, SEQ ID NO: 11 (protein)
chain: MKLEIFSWWSGDEGPALEALVKLYKQKYPSVDVVNATVAGGAGTNAKAVLKTRMLGGDPPDSFQAHAGQELIGTWVVANRMEDLSSLFKSEGWTTKFPKDLLPLISSKGGIWSVPVNVHRSNVMWYIPANLKKWGVTAPKTWDQFLTTAKTLKTKNVTPLALGENWTQQHLWESVAVGTLGAQGWQNLWSGKLKFTDPKVVKVWDTFGKVLDATNKDASGLSWQQATDRVVNGQAAFNIMGDWAAGYLSTTKKLKPGTGFGWAPSPSTSGTFIFLADSFGLPKGAKDRAEALSWLKLLGSKQGQDTFNPLKGSIAARVDSDLSKYSTYSQSAAKDWKSNKIVGSLTHGAVAPESFTSTFGTVIDAFVASRNAQVAAATTQQLADKAGLGKGGSHHHHHH
modifications: dmGBP3 (with signal peptide replaced with M and a GGSHHHHHH at C-terminus)

What was measured:
[1] = Immobilization on Ni-NTA magnetic beads, drying and accelerated aging of sensor; format: physicochemical
Procedure: The magnetic beads coated with immobilized tsGBP13C_ 244F.Acrylodan were dried by incubation at 50° C. for 20 minutes, using an aqueous ammonium bicarbonate buffer. […] The dried beads were aged in situ inside fully assembled sample-handling cartridges by incubation for up to 7 days at 25° C., 37° C., and 50° C. in the dark. Fluorescence and glucose-responsive properties were tested in cartridges stored for 1, 2 and 7 days. […] The tsGBP2-based FRSs therefore are sufficiently robust to be handled at ambient temperatures in a desiccated state, greatly simplifying manufacturing, distribution, and long-term storage conditions.

[2] = ligand-free protein; SYPRO Orange, Roche LightCycler
Procedure: Eight homologs that were predicted to be glucose-binding proteins (FIG. 4, Table 3) were selected to probe different degrees of sequence identity to the ttGBP1 seed, and their glucose-binding properties were determined experimentally. These experiments comprised four successive steps: • 1. Synthetic gene construction. The amino acid sequence of the homology leads were backtranslated into DNA sequences. These were optimized for directing heterologous cytoplasmic expression of the protein homologues in E. coli, using either the OrfOpt or OrfMorph programs. These programs predict mRNA sequences that direct high-level protein expression in E. coli. The predicted gene sequences were assembled de novo from synthetic oligonucleotides. • 2. Heterologous protein expression of the homologues in E. coli. Plasmids carrying the synthetic expression constructs (see above) were transformed into KRX competent cells (Promega). Protein production was induced in bacterial cultures of these cultures, as described in the Materials and Methods. • 3. Purification of successfully expressed protein using immobilized metal affinity chromatography. • 4. Verification of glucose binding. Determination of the glucose-binding properties of the purified proteins using a thermal stability shift assay.
Analysis of glucose-binding properties using thermal melts. The thermal stability of purified GBP candidate proteins was determined by measuring the temperature-dependence of the fluorescence signal of an extrinsically added dye, SYPRO, using a Roche LightCycler (Layton and Hellinga, 2010, Biochemistry, 49, 10831-41). The total fluorescence intensity, S, is given by S=βFfF+βUfU 11 where fF and fU are the fractions of protein in the folded and unfolded states, respectively, and βF and βU the fluorescence baselines of these two states. To get the fractions of the two states, we have
[formula] where KU(T) is the temperature-dependent unfolding equilibrium constant, which by the van't Hoff approximation is given by
[formula] Where T is the temperature, Tm, the unfolding reaction transition mid-point temperature, and ΔHU the enthalpy of unfolding.

| Molecule | stability properties upon rehydration after drying ([1]; beads dried at 50° C. for 20 minutes, determined up to 100° C.) | fluorescence ratio in the absence of glucose and glucose affinities after aging ([1]; dried beads stored 1, 2 and 7 days at 25° C., 37° C., and 50° C. in the dark) | protein stability on beads compared with solution ([1]; immobilized via C-terminal hexa-histidine tag on Ni-NTA magnetic beads, measured up to 100° C.) | Thermostability ^apoTm [2] [°C] |
| --- | --- | --- | --- | --- |
| B1 | recovered upon rehydration | remained approximately unchanged | not perturbed | – |
| B2 | – | – | – | >100 |
| B3 | – | – | – | 47 |
